Results published in PMC1560149, “The DNA polymerase activity of Pol ε holoenzyme is required for rapid and efficient chromosomal DNA replication in Xenopus egg extracts” (BMC Biochemistry, 2006).

Target: T1, p17 (the fourth subunit of xPol ε complex) (Xenopus, UniProt Q6WSQ3 1-147)
T1 construct: p17 subunit of Xenopus DNA polymerase epsilon, 147 amino acids; also called xPol ε p17; source: sf21 insect cells, baculovirus, co-expressed, in crude extract
T1 sequence (looked up): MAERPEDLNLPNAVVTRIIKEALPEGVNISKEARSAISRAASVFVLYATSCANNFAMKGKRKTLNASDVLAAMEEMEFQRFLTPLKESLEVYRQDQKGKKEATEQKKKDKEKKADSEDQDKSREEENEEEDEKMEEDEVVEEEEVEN
Assay: not stated; data not shown; p12 and p17 in insect cells

B1: p12 (the third subunit of xPol ε complex) (natural protein, Xenopus, UniProt Q0EAE6 1-116, looked up)
chain: MAAEVAAPESLEGSGSQEDAGPSSPPAAHPAPCPSKQARLPLSRIKALMKADPDLSLASQESVFVISKATELFIETIAKDAYLYAQQGKRKTLQRKDLDNAIDAIDEFAFLEGTLD
notes: p12 subunit of Xenopus DNA polymerase epsilon, 116 amino acids; also called xPol ε p12; source: sf21 insect cells, baculovirus, co-expressed, in crude extract
stoichiometry N: 1
